Experimental data taken from article PMC5579359, “Sensing of viral and endogenous RNA by ZBP1/DAI induces necroptosis” (The EMBO Journal, 2017).

Molecular target: the molecule itself
Experiment: non-reducing SDS-PAGE and Western blot

B1: MLKL (natural protein, mouse (endogenous in NIH3T3), UniProt Q9D2Y4 1-472, looked up)
chain: MDKLGQIIKLGQLIYEQCEKMKYCRKQCQRLGNRVHGLLQPLQRLQAQGKKNLPDDITAALGRFDEVLKEANQQIEKFSKKSHIWKFVSVGNDKILFHEVNEKLRDVWEELLLLLQVYHWNTVSDVSQPASWQQEDRQDAEEDGNENMKVILMQLQISVEEINKTLKQCSLKPTQEIPQDLQIKEIPKEHLGPPWTKLKTSKMSTIYRGEYHRSPVTIKVFNNPQAESVGIVRFTFNDEIKTMKKFDSPNILRIFGICIDQTVKPPEFSIVMEYCELGTLRELLDREKDLTMSVRSLLVLRAARGLYRLHHSETLHRNISSSSFLVAGGYQVKLAGFELSKTQNSISRTAKSTKAERSSSTIYVSPERLKNPFCLYDIKAEIYSFGIVLWEIATGKIPFEGCDSKKIRELVAEDKKQEPVGQDCPELLREIINECRAHEPSQRPSVDGRSLSGRERILERLSAVEESTDKKV
notes: also called pseudokinase MLKL; source: endogenous, NIH3T3 cell and primary MEF lysates
stoichiometry N: 3
